According to US20130108636A1:

Assays:
gp140Con-s [1] = assay: SPR (Biacore X100), gp140 amine-coupled on a CM5 chip, single-cycle, monovalent model
gp140Con-s [2] = assay: SPR; target not given, taken from Example 5

Substance | Kd (gp140Con-s [1]) [nM] | koff (gp140Con-s [2]) [s⁻¹] | fold decrease of association rate constant compared to mD1 (gp140Con-s [2]) [fold] | kon (gp140Con-s [2]) [M⁻¹ s⁻¹]
D1D2 (from UniProt P01730 26-203) (receptor) | 7.8 | 0.0013 |  | 
mD1-CH2 (from UniProt P01730 26-124) |  | 0.0009 | 80 | 61000
